Assay results as given in the supplement of paper PMC11246515.
± gives the standard deviation of the averaged measurements.

Experiment: total protein half-life in vivo (active degradation + dilution); higher = more stable protein
[1] = E. coli NCM3722 delta-clpP delta-lon delta-hslV, growth: N-lim chemostat, doubling time 6 h
[2] = E. coli NCM3722 delta-clpP, growth: N-lim chemostat, doubling time 6 h
[3] = E. coli NCM3722 delta-hslV, growth: N-lim chemostat, doubling time 6 h
[4] = E. coli NCM3722 delta-smpB, growth: N-lim chemostat, doubling time 6 h
[5] = wild type E. coli NCM3722, growth: C-lim chemostat, doubling time 3 h
[6] = wild type E. coli NCM3722, growth: C-lim chemostat, doubling time 6 h
[7] = wild type E. coli NCM3722, growth: C-lim chemostat, doubling time 12 h
[8] = wild type E. coli NCM3722, growth: N-lim chemostat, doubling time 6 h
[9] = wild type E. coli NCM3722, growth: N-lim chemostat, doubling time 12 h
[10] = wild type E. coli NCM3722, growth: P-lim chemostat, doubling time 6 h
[11] = wild type E. coli NCM3722, growth: P-lim chemostat, doubling time 12 h
[12] = E. coli NCM3722 delta-lon, growth: N-lim chemostat, doubling time 6 h

Sequence	total protein half-life in vivo [1]	total protein half-life in vivo [2]	total protein half-life in vivo [3]	total protein half-life in vivo [4]	total protein half-life in vivo [5]	total protein half-life in vivo [6]	total protein half-life in vivo [7]	total protein half-life in vivo [8]	total protein half-life in vivo [9]	total protein half-life in vivo [10]	total protein half-life in vivo [11]	total protein half-life in vivo [12]
MKQVCVLGNGQLGRMLRQAGEPLGIAVWPVGLDAEPAAVPFQQSVITAEIERWPETALTRELARHPAFVNRDVFPIIADRLTQKQLFDKLHLPTAPWQLLAERSEWPAVFDRLGELAIVKRRTGGYDGRGQWRLRANETEQLPAECYGECIVEQGINFSGEVSLVGARGFDGSTVFYPLTHNLHQDGILRTSVAFPQANAQQQAQAEEMLSAIMQELGYVGVMAMECFVTPQGLLINELAPRVHNSGHWTQNGASISQFELHLRAITDLPLPQPVVNNPSVMINLIGSDVNYDWLKLPLVHLHWYDKEVRPGRKVGHLNLTDSDTSRLTATLEALIPLLPPEYASGVIWAQSKFG	5.64 ± 0.49 h	4.96 ± 1.2 h	3.96 ± 0.012 h	4.51 ± 0.38 h	3.19 ± 0.41 h	6.83 ± 1.3 h	9.39 ± 0.78 h	4.393 ± 0.015 h	8.59 ± 3.2 h	6.17 ± 0.59 h	12.1 ± 0.25 h	–
MKQWIAALLLMLIPGVQAAKPQKVTLMVDDVPVAQVLQALAEQEKLNLVVSPDVSGTVSLHLTDVPWKQALQTVVKSAGLITRQEGNILSVHSIAWQNNNIARQEAEQARAQANLPLENRSITLQYADAGELAKAGEKLLSAKGSMTVDKRTNRLLLRDNKTALSALEQWVAQMDLPVGQVELSAHIVTINEKSLRELGVKWTLADAQHAGGVGQVTTLGSDLSVATATTHVGFNIGRINGRLLDLELSALEQKQQLDIIASPRLLASHLQPASIKQGSEIPYQVSSGESGATSVEFKEAVLGMEVTPTVLQKGRIRLKLHISQNVPGQVLQQADGEVLAIDKQEIETQVEVKSGETLALGGIFTRKNKSGQDSVPLLGDIPWFGQLFRHDGKEDERRELVVFITPRLVSSE	3.42 ± 1.4 h	–	–	–	–	–	6.11 h	–	4.56 h	–	4.33 h	–
MKQYLELMQKVLDEGTQKNDRTGTGTLSIFGHQMRFNLQDGFPLVTTKRCHLRSIIHELLWFLQGDTNIAYLHENNVTIWDEWADENGDLGPVYGKQWRAWPTPDGRHIDQITTVLNQLKNDPDSRRIIVSAWNVGELDKMALAPCHAFFQFYVADGKLSCQLYQRSCDVFLGLPFNIASYALLVHMMAQQCDLEVGDFVWTGGDTHLYSNHMDQTHLQLSREPRPLPKLIIKRKPESIFDYRFEDFEIEGYDPHPGIKAPVAI [P0A884]	4.71 ± 0.41 h	4.939 ± 0.04 h	4.26 ± 0.21 h	4.48 ± 0.38 h	3.23 ± 0.11 h	5.59 ± 0.4 h	10.3 ± 0.11 h	4.62 ± 0.15 h	7.94 ± 0.4 h	5.65 ± 0.14 h	10.4 ± 2.7 h	4.54 ± 0.25 h
MKRAVVVFSGGQDSTTCLVQALQQYDEVHCVTFDYGQRHRAEIDVARELALKLGARAHKVLDVTLLNELAVSSLTRDSIPVPDYEPEADGIPNTFVPGRNILFLTLAAIYAYQVKAEAVITGVCETDFSGYPDCRDEFVKALNHAVSLGMAKDIRFETPLMWIDKAETWALADYYGKLDLVRNETLTCYNGFKGDGCGHCAACNLRANGLNHYLADKPTVMAAMKQKTGLR	4.91 ± 0.072 h	4.53 ± 0.16 h	4.47 ± 0.14 h	3.87 ± 0.57 h	2.6 ± 0.17 h	5.36 ± 0.46 h	9.333 ± 0.044 h	4.84 ± 0.59 h	7.72 ± 0.73 h	–	12.4 ± 1.3 h	5.02 ± 0.59 h
MKREEIADLMAFVVVAEERSFTRAAARLSMAQSALSQIVRRIEERLGLRLLTRTTRSVVPTEAGEHLLSVLGPMLHDIDSAMASLSDLQNRPSGTIRITTVEHAAKTILLPAMRTFLKSHPEIDIQLTIDYGLTDVVSERFDAGVRLGGEMDKDMIAIRIGPDIPMAIVGSPDYFSRRSVPTSVSQLIDHQAINLYLPTSGTANRWRLIRGGREVRVRMEGQLLLNTIDLIIDAAIDGHGLAYLPYDQVERAIKEKKLIRVLDKFTPDLPGYHLYYPHRRHAGSAFSLFIDRLKYKGAV	5.34 ± 0.45 h	–	> 8 h	6.01 ± 1.5 h	2.929 ± 0.019 h	–	–	5.238 ± 0.043 h	11.7 h	5.36 h	9.19 ± 3.4 h	6.34 h
MKRHLNTCYRLVWNHMTGAFVVASELARARGKRGGVAVALSLAAVTSLPVLAADIVVHPGETVNGGTLANHDNQIVFGTTNGMTISTGLEYGPDNEANTGGQWVQDGGTANKTTVTSGGLQRVNPGGSVSDTVISAGGGQSLQGRAVNTTLNGGEQWMHEGAIATGTVINDKGWQVVKPGTVATDTVVNTGAEGGPDAENGDTGQFVRGDAVRTTINKNGRQIVRAEGTANTTVVYAGGDQTVHGHALDTTLNGGYQYVHNGGTASDTVVNSDGWQIVKNGGVAGNTTVNQKGRLQVDAGGTATNVTLKQGGALVTSTAATVTGINRLGAFSVVEGKADNVVLENGGRLDVLTGHTATNTRVDDGGTLDVRNGGTATTVSMGNGGVLLADSGAAVSGTRSDGKAFSIGGGQADALMLEKGSSFTLNAGDTATDTTVNGGLFTARGGTLAGTTTLNNGAILTLSGKTVNNDTLTIREGDALLQGGSLTGNGSVEKSGSGTLTVSNTTLTQKAVNLNEGTLTLNDSTVTTDVIAQRGTALKLTGSTVLNGAIDPTNVTLASGATWNIPDNATVQSVVDDLSHAGQIHFTSTRTGKFVPATLKVKNLNGQNGTISLRVRPDMAQNNADRLVIDGGRATGKTILNLVNAGNSASGLATSGKGIQVVEAINGATTEEGAFVQGNRLQAGAFNYSLNRDSDESWYLRSENAYRAEVPLYASMLTQAMDYDRIVAGSRSHQTGVNGENNSVRLSIQGGHLGHDNNGGIARGATPESSGSYGFVRLEGDLMRTEVAGMSVTAGVYGAAGHSSVDVKDDDGSRAGTVRDDAGSLGGYLNLVHTSSGLWADIVAQGTRHSMKASSDNNDFRARGWGWLGSLETGLPFSITDNLMLEPQLQYTWQGLSLDDGKDNAGYVKFGHGSAQHVRAGFRLGSHNDMTFGEGTSSRAPLRDSAKHSVSELPVNWWVQPSVIRTFSSRGDMRVGTSTAGSGMTFSPSQNGTSLDLQAGLEARVRENITLGVQAGYAHSVSGSSAEGYNGQATLNVTF	5.867 ± 0.045 h	6.13 ± 0.57 h	4.9 ± 0.93 h	5.53 ± 0.46 h	3.05 ± 0.062 h	4.43 ± 1.3 h	4.46 ± 0.86 h	5.92 ± 0.28 h	9.16 ± 2 h	5.77 ± 0.94 h	11.9 ± 0.57 h	5.37 ± 0.085 h
MKRIAFVFSTAPHGTAAGREGLDALLATSALTDDLAVFFIADGVFQLLPGQKPDAVLARDYIATFKLLGLYDIEQCWVCAASLRERGLDPQTPFVVEATPLEADALRRELANYDVILRF	5 ± 0.57 h	4.73 h	4.7 ± 0.82 h	4.61 ± 0.23 h	> 4 h	6 ± 0.18 h	11.2 ± 0.57 h	4.83 ± 0.091 h	7.67 ± 0.38 h	5.89 ± 1.2 h	13.9 ± 2.3 h	5.18 ± 0.19 h
